The record followed here is patent US20060018919A1.

Ends that are not written are not given here.

The first assay has as its target target rabbit anti-LOS antibody. The assay is described as follows: capture ELISA, phage on coated antibody; OD over irrelevant rabbit antibody.
The molecule NMMRFTELSTPSGGGS (peptide, not shown: large carriers) [phage clone 2-15] gave a Fold rise of ELISA value of 1510 fold.

For the next assay the target is unchanged. Nature of the assay: peptide ELISA, peptide coupled to NucleoLink strip, target antibody 0.4 ug/well.
As to NMMRFTELSTPSGGGS (also: coupled via C-terminal carboxyl to NucleoLink strips) [synthetic peptide 4 … with C-terminal GGGS spacer], the Binding reactivity (OD405) was 0.99 OD405.
NMMKYISPPIFLGGGS (also: coupled via C-terminal carboxyl to NucleoLink strips) [synthetic peptide 3 … with C-terminal GGGS spacer]: the Binding reactivity (OD405) amounted to 1.11 OD405.
Same read-out and setting: the value for NMMNYIMDPRTHGGGS (also: coupled via C-terminal carboxyl to NucleoLink strips) [synthetic peptide 2 … with C-terminal GGGS spacer] was 2.52 OD405; that for NMMRFTSQPPNNGGGS (also: coupled via C-terminal carboxyl to NucleoLink strips) [synthetic peptide 1 … with C-terminal GGGS spacer] was 0.4 OD405.
On the same count and under the same terms, the value for TLAHHKKPWILRGGGS (also: coupled via C-terminal carboxyl to NucleoLink strips) [synthetic peptide 5 … (control peptide from an unrelated clone) with C-terminal GGGS spacer] was 0.33 OD405.
